Test results: US20240190939A1 (SHATTUCK LABS, published 2024)

How the values were obtained:
[1] = molecular target: T1, human PD-L1 on CHO-K1 cells (human, UniProt Q9NZQ7 19-290); assay: flow cytometry on CHO-K1 cells expressing human PD-L1
T1 construct: whole, on cells; also called hPD-L1 engineered cell line; hPD-L1 over-expressing cell line
From the text: Cells were collected, washed, and stained with antibodies for the detection of the chimeric protein binding by flow cytometry.

hPDL1-Fc = molecular target: T2, hPDL1-Fc (human, UniProt Q9NZQ7 19-238); assay: Dual ELISA: hPDL1-Fc capture, hLTBR-His detection, 6x His HRP (signal needs both hPDL1-Fc and hLTBR-His bound)
T2 construct: not shown: Fc, not identified
Protocol: For each chimeric protein ELISAs were performed under the following conditions: Heavy+Light Chain captured and detected with Fc-HRP (FIG. 13A and FIG. 13B, top left), a murine LTBR-His captured and detected with an antibody directed to murine LIGHT (FIG. 13A, top right) or human LTBR-His captured and detected with biotinylated human LIGHT (FIG. 138, top right), and mPD-L1 captured and detected with an antibody directed to mLIGHT (FIG. 13A, bottom left; “Dual ELISA”) or hPDL1-Fc captured and detected with hLTBR-His/6×His-HRP (FIG. 13A, bottom left; “Dual ELISA”).

human LTBR-His = molecular target: T3, human LTBR-His (human, UniProt P36941 31-227, limits assumed); assay: ELISA: hLTBR-Fc His Tag capture, 'hLIGHT Biotinylated' detection, streptavidin HRP
T3 construct: also called hLTBR-His

recombinant human PD-L2 = molecular target: T4, recombinant human PD-L2 (human, UniProt Q9BQ51 20-220); assay: biolayer interferometry (Octet), recombinant human PD-L2
T4 sequence (looked up): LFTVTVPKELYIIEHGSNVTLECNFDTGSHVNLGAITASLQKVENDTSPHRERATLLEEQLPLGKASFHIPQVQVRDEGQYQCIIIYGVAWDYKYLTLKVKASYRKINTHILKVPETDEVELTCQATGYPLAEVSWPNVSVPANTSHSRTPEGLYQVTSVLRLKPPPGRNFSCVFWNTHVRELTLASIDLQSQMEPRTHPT

recombinant CD155 = molecular target: T5, recombinant CD155; assay: ELISA: CD155/PVR capture, Fc-HRP detection
T5 construct: also called CD155/PVR

[2] = molecular target: T6, mouse PVR on CHO-K1 cells (mouse); assay: flow cytometry on CHO-K1 cells expressing murine PVR
T6 construct: whole, on cells; also called CHOK1/PVR; mPVR engineered cell line

T3 sequence (P36941 31-227 limits assumed): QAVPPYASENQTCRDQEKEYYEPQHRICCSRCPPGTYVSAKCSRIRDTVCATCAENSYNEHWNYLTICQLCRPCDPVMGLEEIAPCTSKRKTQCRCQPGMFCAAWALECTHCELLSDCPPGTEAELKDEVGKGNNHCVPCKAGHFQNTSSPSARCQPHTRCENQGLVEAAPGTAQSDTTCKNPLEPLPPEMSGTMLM
T1 sequence (Q9NZQ7 19-290): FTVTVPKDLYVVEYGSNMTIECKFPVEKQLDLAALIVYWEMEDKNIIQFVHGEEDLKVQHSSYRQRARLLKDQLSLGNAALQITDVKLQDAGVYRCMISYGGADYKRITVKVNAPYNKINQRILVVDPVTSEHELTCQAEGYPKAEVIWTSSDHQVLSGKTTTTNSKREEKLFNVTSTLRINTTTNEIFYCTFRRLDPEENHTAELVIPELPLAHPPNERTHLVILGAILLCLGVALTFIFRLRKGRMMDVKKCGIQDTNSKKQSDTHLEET
T2 sequence (Q9NZQ7 19-238 limits assumed): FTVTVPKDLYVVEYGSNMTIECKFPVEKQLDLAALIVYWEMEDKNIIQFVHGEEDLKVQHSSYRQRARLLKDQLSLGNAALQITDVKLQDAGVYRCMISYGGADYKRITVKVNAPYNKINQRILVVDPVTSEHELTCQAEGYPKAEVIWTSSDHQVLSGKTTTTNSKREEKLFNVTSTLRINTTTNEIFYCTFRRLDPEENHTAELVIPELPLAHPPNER

B1: human PD-1-Fc-LIGHT chimeric protein (Fc fusion)
chain: LDSPDRPWNPPTFSPALLVVTEGDNATFTCSFSNTSESFVLNWYRMSPSNQTDKLAAFPEDRSQPGQDCRFRVTQLPNGRDFHMSVVRARRNDSGTYLCGAISLAPKAQIKESLRAELRVTERRAEVPTAHPSPSPRPAGQFQSKYGPPCPPCPAPEFLGGPSVFLFPPKPKDQLMISRTPEVTCVVVDVSQEDPEVQFNWYVDGVEVHNAKTKPREEQFNSTYRVVSVLTVLHQDWLSGKEYKCKVSSKGLPSSIEKTISNATGQPREPQVYTLPPSQEEMTKNQVSLTCLVKGFYPSDIAVEWESNGQPENNYKTTPPVLDSDGSFFLYSRLTVDKSRWQEGNVFSCSVLHEALHNHYTQKSLSLSLGKIEGRMDLQLHWRLGEMVTRLPDGPAGSWEQLIQERRSHEVNPAAHLTGANSSLTGSGGPLLWETQLGLAFLRGLSYHDGALVVTKAGYYYIYSKVQLGGVGCPLGLASTITHGLYKRTPRYPEELELLVSQQSPCGRATSSSRVWWDSSFLGGVVHLEAGEKVVVRVLDERLVRLRDGTRSYFGAFMV
notes: also called hPD-1-Fc-LIGHT
**Q.** Which EC50 [1] does the source give for B1 here?
**A.** Its EC50 is 48 nM.

**Q.** What about the “EC50 (read off the curve)” value (hPDL1-Fc) of the same binder?
**A.** The value was roughly 10 nM.

**Q.** And the “EC50 (read off the curve)” value (human LTBR-His)?
**A.** Its value is roughly 20 nM.

**Q.** Does B1 bind (recombinant human PD-L2)?
**A.** Result: binds

B2: murine TIGIT-Fc-LIGHT chimeric protein (Fc fusion)
chain 1: TIDTKRNISAEEGGSVILQCHFSSDTAEVTQVDWKQQDQLLAIYSVDLGWHVASVFSDRVVPGPSLGLTFQSLTMNDTGEYFCTYHTYPGGIYKGRIFLKVQESSDDRNGLAQFQTAPLG
chain 2: LHQRLGDIVAHLPDGGKGSWEKLIQDQRSHQANPAAHLTGANASLIGIGGPLLWETRLGLAFLRGLTYHDGALVTMEPGYYYVYSKVQLSGVGCPQGLANGLPITHGLYKRTSRYPKELELLVSRRSPCGRANSSRVWWDSSFLGGVVHLEAGEEVVVRVPGNRLVRPRDGTRSYFGAFMV
**Q.** Which results are given for B2?
**A.** EC50 (read off the curve) (recombinant CD155): ~5 nM; EC50 [2]: 215 nM
